Test results: doi:10.1101/2021.06.22.449466 (bioRxiv, 2021)
Where two headings read alike, the source gives them in different places.

Columns and labels:
[1] = biological target: T1, Human RPA (heterotrimeric RPA complex: RPA70, RPA32 and RPA14 subunits) (human, UniProt P27694;P15927;P35244); test: BLI
[2] = biological target: T1, Human RPA (heterotrimeric RPA complex: …); test: BLI; remark: listed apart in the source

T1 sequence (P27694 whole entry, chain 1 of 3): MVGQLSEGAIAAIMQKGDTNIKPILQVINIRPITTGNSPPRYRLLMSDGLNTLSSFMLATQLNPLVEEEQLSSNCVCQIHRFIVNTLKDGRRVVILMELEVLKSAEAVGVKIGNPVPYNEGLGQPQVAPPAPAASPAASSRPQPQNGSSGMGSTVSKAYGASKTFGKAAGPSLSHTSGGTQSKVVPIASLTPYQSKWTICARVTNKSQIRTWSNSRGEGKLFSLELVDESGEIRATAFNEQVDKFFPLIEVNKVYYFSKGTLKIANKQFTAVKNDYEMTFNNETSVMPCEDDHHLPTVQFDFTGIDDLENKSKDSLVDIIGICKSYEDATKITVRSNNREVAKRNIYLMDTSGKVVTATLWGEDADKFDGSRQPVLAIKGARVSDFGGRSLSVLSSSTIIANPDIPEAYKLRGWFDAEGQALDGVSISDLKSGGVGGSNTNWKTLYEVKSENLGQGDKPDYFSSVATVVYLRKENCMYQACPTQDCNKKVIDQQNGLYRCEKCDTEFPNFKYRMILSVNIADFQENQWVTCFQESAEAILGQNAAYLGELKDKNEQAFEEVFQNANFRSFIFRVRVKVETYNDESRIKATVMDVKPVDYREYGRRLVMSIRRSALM
T1 sequence (P15927 whole entry, chain 2 of 3): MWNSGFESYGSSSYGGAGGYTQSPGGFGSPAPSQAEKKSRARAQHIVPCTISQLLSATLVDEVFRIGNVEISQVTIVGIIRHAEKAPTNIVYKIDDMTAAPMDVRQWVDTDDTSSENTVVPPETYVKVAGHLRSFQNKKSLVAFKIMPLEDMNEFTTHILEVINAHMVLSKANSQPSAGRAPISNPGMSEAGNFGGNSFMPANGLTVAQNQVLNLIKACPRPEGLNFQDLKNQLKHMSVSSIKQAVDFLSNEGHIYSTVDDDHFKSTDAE
T1 sequence (P35244 whole entry, chain 3 of 3): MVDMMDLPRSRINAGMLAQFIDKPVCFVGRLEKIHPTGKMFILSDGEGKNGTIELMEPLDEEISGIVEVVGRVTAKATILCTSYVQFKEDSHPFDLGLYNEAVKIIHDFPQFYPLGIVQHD

Kd [1]: 35 µM
Kd [2]: 1.5 µM
B1: Lamin-C (amino acid residues 1-152) (domain or fragment)
chain: METPSQRRATRSGAQASSTPLSPTRITRLQEKEDLQELNDRLAVYIDRVRSLETENAGLRLRITESEEVVSREVSGIKAAYEAELGDARKTLDSVAKERARLQLELSKVREEFKELKARNTKKEGDLIAAQARLKDLEALLNSKEAALSTAL
